# In patent publication US20100196385A1 (AstraZeneca / MedImmune, published 2010):
# Numbering of substitutions follows the chain as printed. Numbers in names are those of the source.
# B1: 17F3 (antibody, IgG2, V domains shown)
# VH: QVQLVQSGAEVKKPGASVKVSCKASGYTFTNYGISWVRQAPGQGLEWMGWINAYNGNTNYAQNLQGRVTMTTDTSTNTAYMELRSLRSDDTAVYYCARVAPAAFFDYWDQGTLVTVSS
# VL: SYELTQPPSVSVSPGQTASITCSGDKLGDKYVCWYQQKPGQSPVLVIYQDNKRPSGIPERFSGSNSGNTATLIISGTQAMDEADYYCQAWDSSTVFGGGTKLTVL
# notes: Fully human; also used where no isotype is printed
# B2: 21F7 (antibody, IgG2, V domains shown)
# VH: B1 VH with K23Q, P101A
# VL: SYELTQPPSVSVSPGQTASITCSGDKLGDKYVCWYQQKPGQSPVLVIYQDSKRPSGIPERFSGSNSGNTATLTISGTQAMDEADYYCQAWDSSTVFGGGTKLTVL
# notes: as for B1
# B3: 9G8 IgG2 VH wt/VL wt (antibody, V domains shown)
# VH: QLQLQESGPGLVKPSETLSLSCTVSGGSISSSSSYWGLIRQPPGKGLEWIGSIYYSGSTYYSPSLKSRVSISVDTSKNQFSLKLSSVTAADTAVYFCARQGYGGHPDVFDIWGQGTMVTVSS
# VL: SSELTQSPSVSVSPGQTARITCSGDKLGDVYVCWYQQKTGQSPVLVIYEDTKRPSGIPERFSGSNSGNTATLTISGTQVMDEADYYCQAWDSTTAVIFGGGTKLTVL
# notes: IgG2, transiently expressed
# B4: 9G8 IgG2 VH L38W/VL C33S (antibody, V domains shown)
# VH: B3 VH with L38W
# VL: B3 VL with C33S
# notes: IgG2
# B5: 9G8 IgG2 VH L38W/VL S7P (antibody, V domains shown)
# VH: B3 VH with L38W
# VL: B3 VL with S7P
# notes: IgG2
# B6: 9G8 IgG2 VH L38W/VL wt (antibody, V domains shown)
# VH: B3 VH with L38W
# VL: B3 VL
# notes: IgG2
# B7: 9G8 IgG2 VH wt/VL C33S (antibody, V domains shown)
# VH: B3 VH
# VL: B3 VL with C33S
# notes: IgG2
# B8: 9G8 IgG2 VH wt/VL S7P (antibody, V domains shown)
# VH: B3 VH
# VL: B3 VL with S7P
# notes: IgG2
# B9: 9G8 IgG2 VH wt/VL V79A (antibody, V domains shown)
# VH: B3 VH
# VL: B3 VL with V79A
# notes: IgG2
# Legend:
# [1] = target: T1, full length human DLL4 (human, UniProt Q9NR61 27-685); assay: FMAT competition, supernatant vs Alexa-647 human Notch1/Fc, 293T cells with human DLL4
# T1 construct: whole, on cells; also called native DLL4 expressed in HEK293 cells
# Method: Transfected and untransfected 239T cells were reconstituted in PBS containing 2% FCS and 5000 transfected and 17500 non-transfected cells were plated in 20 μl into wells of a 384-well tissue culture plate (Corning Costar, catalog #3712). Subsequently, 20 μl of hybridoma supernatant was added and plates were incubated at 4° C. for 1 h, at which time 20 μl of Alexa-647 labeled human Notch1/Fc was added at a final concentration of 6.7 ng/ml. After a further 3 h incubation at 4° C., the amount of bound Notch1/Fc was determined by reading the fluorescence in each well using an FMAT 8200 instrument (Applied Biosystems). Results are expressed as % inhibitions with the minimum inhibition in the assay being determined by the effects of non-DLL4 binding supernatants prepared in a similar way as described in example 2, and the maximum inhibition being defined as the signal obtained in the presence of a saturating concentration of unlabeled Notch1/Fc. N.T.=not tested
# [2] = target: DLL4 extracellular domain (R&D systems, catalog #1506-D4/CF) (UniProt Q9NR61 27-529, limits assumed); assay: cell-based or functional assay
# [3] = target: T2, human Jagged1 (human, UniProt P78504 34-1218); assay: FMAT, hybridoma supernatant, 293T cells with human Jagged1
# T2 construct: whole, on cells
# Method: (§1) Cells diluted in PBS containing 2% FBS were seeded at a density of 3000 expressing and 15000 mock transfected cells per well in 384 well plates (Corning Costar, catalog #3712). Immediately after plating, 15 or 20 μl/well of hybridoma supernatants and 10 μl/well of secondary antibody (Goat anti-human IgG Fc Cy5, final concentration 750 ng/ml) were added and plates incubated for 3 h at room temperature prior to reading the fluorescence on the FMAT 8200 instrument (Applied Biosystems). The binding of human Notch1/Fc chimera (R&D systems, catalog #3647-TK), diluted 1:2 from 2.86 μg/ml was used as a positive control for DLL4 and human Notch3/Fc chimera diluted from 10 μg/ml was used a positive control for binding to Jagged1. Results for 12 hybridoma supernatants showing binding of hybridoma supernatants to human/cynomolgus monkey DLL4 and human Jagged are shown in Table 3.
# [4] = target: T1, full length human DLL4; assay: FMAT, hybridoma supernatant, 293T cells with human DLL4
# Method: as §1
# [5] = target: T3, human Dll1 (human, UniProt O00548 18-723); assay: FACS, 15 µg/ml, 293T cells with human Dll1
# T3 construct: whole, on cells
# T3 sequence (looked up): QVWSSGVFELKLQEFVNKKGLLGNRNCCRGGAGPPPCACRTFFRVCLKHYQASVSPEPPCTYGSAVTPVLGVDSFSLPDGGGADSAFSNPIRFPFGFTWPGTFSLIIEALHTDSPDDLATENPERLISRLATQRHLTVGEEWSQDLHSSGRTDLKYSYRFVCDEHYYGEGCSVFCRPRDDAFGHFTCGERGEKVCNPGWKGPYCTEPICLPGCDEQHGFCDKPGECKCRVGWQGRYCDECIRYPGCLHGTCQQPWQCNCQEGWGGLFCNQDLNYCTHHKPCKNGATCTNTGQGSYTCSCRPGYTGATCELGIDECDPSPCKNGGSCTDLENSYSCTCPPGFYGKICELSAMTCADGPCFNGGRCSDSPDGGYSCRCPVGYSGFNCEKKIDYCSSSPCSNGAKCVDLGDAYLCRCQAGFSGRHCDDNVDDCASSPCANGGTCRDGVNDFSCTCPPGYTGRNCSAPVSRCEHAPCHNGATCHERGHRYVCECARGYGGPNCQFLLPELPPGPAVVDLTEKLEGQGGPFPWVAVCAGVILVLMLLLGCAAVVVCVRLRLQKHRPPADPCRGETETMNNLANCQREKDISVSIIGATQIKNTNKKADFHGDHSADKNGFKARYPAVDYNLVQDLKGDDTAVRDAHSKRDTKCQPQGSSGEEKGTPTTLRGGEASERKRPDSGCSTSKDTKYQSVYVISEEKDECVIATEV
# Method: (§2) The ability of the purified antibodies to bind to human Jagged1 and Dll1 was determined by FACS analysis. […] Cells were resuspended in PBS containing 2% FCS and seeded at 50000 cells/well into V-bottomed plates. Anti-DLL4 antibodies diluted in PBS containing 2% FCS were added at a final concentration of 5 or 15 μg/ml and plates were incubated for 1 h at 4° C. […] Data was analyzed by comparing the shift in geometric mean fluorescence in the mock-transfected cells to that observed in the Jagged1- or Dll1-transfected cells and is shown in Tables 16 and 17.
# [6] = target: T2, human Jagged1; assay: FACS, 5 µg/ml, 293T cells with human Jagged1 vs mock
# Method: as §2
# [7] = target: T3, human Dll1; assay: FACS, 15 µg/ml, 293T cells with human Dll1 vs mock
# Method: as §2
# [8] = target: T1, full length human DLL4; assay: FMAT competition, purified antibody vs Alexa-647 human Notch1/Fc, 293T cells with human DLL4
# Method: To discriminate between the purified antibodies based upon their ability to prevent the interaction between full-length recombinant DLL4 and soluble Notch1/Fc, the following assays were performed. Transfected and untransfected 239T cells were reconstituted in PBS containing 2% FCS and 5000 transfected and 17500 non-transfected cells were plated in 30 μl into wells of a 384-well tissue culture plate (Corning Costar, catalog #3712). Subsequently, 30 μl of purified antibodies, serial diluted from 5 μg/ml hybridoma supernatant was added and plates were incubated at 4° C. for 1 h, at which time 20 μl of 100 ng/ml Alexa-647 labeled human Notch1/Fc was added. After a further 3 h incubation at 4° C., the amount of bound Notch1/Fc was determined by reading the fluorescence in each well using an FMAT 8200 instrument (Applied Biosystems).
# [9] = target: T2, human Jagged1; assay: FACS, 5 µg/ml, 293T cells with human Jagged1
# Method: as §2
# [10] = target: T1, full length human DLL4; assay: FACS binding, HEK293 cells with human DLL4
# Method: (§3) The activity of the mutated antibodies was assessed in two ways: firstly, the ability of the antibodies to block the binding of soluble Notch1/Fc to full length human DLL4 stably expressed in HEK293 cells as described in Example 3 was determined and, secondly, the binding of the antibodies to the same cell line used in the receptor-ligand competition studies was determined. For the binding studies, HEK293 cells stably overexpressing human DLL4 were resuspended in PBS containing 2% FCS at a concentration of 50,000 cells/well and incubated with titrations of antibody (final concentrations 0.01-10 μg/ml) for 1 h at 4° C. The cells were then washed and incubated with 0.31 μg/ml anti-human IgG-Fc-FITC (BD Pharmingen, cat#555786) for 30 minutes at 4° C. Bound […] was detected using FACS analysis. Results of these studies are summarized in Table 23, which show the effects of specific mutations to sequences of 9G8 and 2H10 on the ability of the antibodies to compete with Notch1 for binding to human DLL4 or to bind to human DLL4 relative to unmutated antibodies.
# [11] = target: T1, full length human DLL4; assay: FACS competition vs Notch1/Fc, HEK293 cells with human DLL4
# Method: Further experiments were performed on selected antibodies using HEK293 cells that were stably transfected with either human, mouse or cynomolgus monkey DLL4 using retroviral constructs. In these experiments, anti-DLL4 antibodies (final concentration: 10-0.01 μg/ml) diluted in PBS containing 2% FCS were added to DLL4-expressing HEK 293 cells (50000 cells/well diluted in PBS containing 2% FCS) and incubated for 1 h at 4° C. Subsequently, Alexa-647 labeled human, rat or APC labeled mouse Notch1/Fc (e.g. R&D Systems, catalog #3647-TK-050, 1057-TK-050, 5267-TK-050, respectively) was added at a final concentration of 0.01-0.5 μg/ml and plates were incubated for a further 2 h at 4° C. prior to washing and reading on a FACSCalibur instrument.
# as §3
# Sequence of DLL4 extracellular domain (R&D systems, catalog #1506-D4/CF) (Q9NR61 27-529 limits assumed): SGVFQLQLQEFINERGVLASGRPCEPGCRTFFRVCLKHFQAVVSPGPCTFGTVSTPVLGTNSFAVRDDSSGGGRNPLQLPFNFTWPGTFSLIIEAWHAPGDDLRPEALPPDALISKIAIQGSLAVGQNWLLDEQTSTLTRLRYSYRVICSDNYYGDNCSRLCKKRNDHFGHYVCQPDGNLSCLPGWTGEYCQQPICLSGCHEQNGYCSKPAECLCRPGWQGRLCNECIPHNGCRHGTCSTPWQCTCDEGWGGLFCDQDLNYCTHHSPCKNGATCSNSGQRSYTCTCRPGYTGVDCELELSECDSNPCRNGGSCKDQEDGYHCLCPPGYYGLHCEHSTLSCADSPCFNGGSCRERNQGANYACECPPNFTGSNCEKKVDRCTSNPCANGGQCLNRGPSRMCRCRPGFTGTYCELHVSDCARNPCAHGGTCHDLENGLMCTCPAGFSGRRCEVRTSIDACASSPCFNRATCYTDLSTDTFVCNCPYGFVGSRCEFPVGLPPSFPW
# T2 sequence (P78504 34-1218): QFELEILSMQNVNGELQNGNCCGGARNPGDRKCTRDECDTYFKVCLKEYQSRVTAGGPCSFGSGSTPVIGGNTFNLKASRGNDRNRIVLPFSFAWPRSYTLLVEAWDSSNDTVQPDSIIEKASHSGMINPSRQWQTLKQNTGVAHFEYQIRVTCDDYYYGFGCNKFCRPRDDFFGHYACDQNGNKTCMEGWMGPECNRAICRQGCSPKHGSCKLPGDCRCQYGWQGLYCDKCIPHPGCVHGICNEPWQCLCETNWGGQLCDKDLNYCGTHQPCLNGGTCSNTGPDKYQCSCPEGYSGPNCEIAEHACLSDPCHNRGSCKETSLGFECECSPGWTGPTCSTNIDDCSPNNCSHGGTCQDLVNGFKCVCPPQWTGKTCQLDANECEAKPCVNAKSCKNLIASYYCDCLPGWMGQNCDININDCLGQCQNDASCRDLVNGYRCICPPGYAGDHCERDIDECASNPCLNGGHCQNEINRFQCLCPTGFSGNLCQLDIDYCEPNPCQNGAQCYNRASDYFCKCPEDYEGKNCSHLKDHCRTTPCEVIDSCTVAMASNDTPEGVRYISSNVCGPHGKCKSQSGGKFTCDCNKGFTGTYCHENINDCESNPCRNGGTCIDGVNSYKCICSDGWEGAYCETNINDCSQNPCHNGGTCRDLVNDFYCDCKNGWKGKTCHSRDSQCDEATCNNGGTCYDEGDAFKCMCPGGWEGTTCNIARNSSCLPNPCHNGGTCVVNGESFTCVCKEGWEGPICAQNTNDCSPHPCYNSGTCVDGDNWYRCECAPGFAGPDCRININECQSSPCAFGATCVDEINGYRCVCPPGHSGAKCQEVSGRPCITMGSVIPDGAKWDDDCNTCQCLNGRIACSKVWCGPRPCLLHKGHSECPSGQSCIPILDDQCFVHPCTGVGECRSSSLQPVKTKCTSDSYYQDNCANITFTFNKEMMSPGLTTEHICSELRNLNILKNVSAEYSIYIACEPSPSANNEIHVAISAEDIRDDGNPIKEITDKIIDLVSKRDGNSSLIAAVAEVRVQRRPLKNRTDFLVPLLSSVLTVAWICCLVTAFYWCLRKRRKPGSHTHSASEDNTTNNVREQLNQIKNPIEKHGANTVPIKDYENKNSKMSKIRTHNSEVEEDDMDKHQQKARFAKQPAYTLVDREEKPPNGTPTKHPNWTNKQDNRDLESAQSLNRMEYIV
# T1 sequence (Q9NR61 27-685): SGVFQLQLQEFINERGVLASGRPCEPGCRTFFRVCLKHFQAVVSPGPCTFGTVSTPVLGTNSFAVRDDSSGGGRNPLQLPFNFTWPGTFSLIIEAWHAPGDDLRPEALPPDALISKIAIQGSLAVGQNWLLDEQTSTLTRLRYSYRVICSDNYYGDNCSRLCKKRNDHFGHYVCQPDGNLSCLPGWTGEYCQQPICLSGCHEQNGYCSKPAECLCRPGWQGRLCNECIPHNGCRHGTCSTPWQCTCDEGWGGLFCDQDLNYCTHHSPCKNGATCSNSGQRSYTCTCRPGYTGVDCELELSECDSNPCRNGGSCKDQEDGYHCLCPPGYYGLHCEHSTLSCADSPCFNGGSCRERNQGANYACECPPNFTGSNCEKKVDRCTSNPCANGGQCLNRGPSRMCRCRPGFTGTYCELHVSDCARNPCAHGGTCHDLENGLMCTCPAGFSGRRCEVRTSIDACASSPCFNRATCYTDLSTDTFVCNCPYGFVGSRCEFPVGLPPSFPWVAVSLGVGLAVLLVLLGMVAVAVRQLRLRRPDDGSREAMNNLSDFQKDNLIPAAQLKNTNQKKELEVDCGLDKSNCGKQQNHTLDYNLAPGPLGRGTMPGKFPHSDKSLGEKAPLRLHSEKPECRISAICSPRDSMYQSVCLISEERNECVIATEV
binder,measurement,setting,value
B1,% inhibition n = 2,[1],108%
same,% inhibition n = 3,[1],131%
same,Mean % inhibition,[1],120%
same,"% inhibition 1 µg/ml, AVERAGE (HUVEC proliferation on coated DLL4)",[2],30%
same,"% inhibition 1 µg/ml, N = 1 (HUVEC proliferation on coated DLL4)",[2],24%
same,"% inhibition 1 µg/ml, N = 2 (HUVEC proliferation on coated DLL4)",[2],35%
same,"% inhibition 10 µg/ml, AVERAGE (HUVEC proliferation on coated DLL4)",[2],52%
same,"% inhibition 10 µg/ml, N = 1 (HUVEC proliferation on coated DLL4)",[2],48%
same,"% inhibition 10 µg/ml, N = 2 (HUVEC proliferation on coated DLL4)",[2],56%
same,Count,[3],30
same,FL1,[3],1440
same,FL1 x count,[3],43100
same,Count,[4],219
same,FL1,[4],11300
same,FL1 x count,[4],2.47e+06
same,Dll1/293T X Geo mean,[5],47
same,Jagged1/mock ratio,[6],1.08
same,Dll1/mock ratio,[7],1.14
same,% inhibition at 0.020 nM,[8],14%
same,% inhibition at 0.070 nM,[8],25%
same,% inhibition at 0.21 nM,[8],14%
same,% inhibition at 0.62 nM,[8],29%
same,% inhibition at 1.9 nM,[8],69%
same,% inhibition at 5.6 nM,[8],121%
same,% inhibition at 16.7 nM,[8],115%
same,IC50,[8],1.81 nM
same,Jagged1/293T X Geo mean,[9],16.3
B2,% inhibition n = 2,[1],93%
same,% inhibition n = 3,[1],140%
same,Mean % inhibition,[1],117%
same,"% inhibition 1 µg/ml, N = 1 (HUVEC proliferation on coated DLL4)",[2],30%
same,"% inhibition 10 µg/ml, N = 1 (HUVEC proliferation on coated DLL4)",[2],48%
same,Count,[3],1
same,FL1,[3],2070
same,FL1 x count,[3],2070
same,Count,[4],200
same,FL1,[4],10400
same,FL1 x count,[4],2.08e+06
same,Dll1/293T X Geo mean,[5],30.2
same,Jagged1/mock ratio,[6],1.01
same,Dll1/mock ratio,[7],1.13
same,% inhibition at 0.020 nM,[8],11%
same,% inhibition at 0.070 nM,[8],17%
same,% inhibition at 0.21 nM,[8],7%
same,% inhibition at 0.62 nM,[8],-22%
same,% inhibition at 1.9 nM,[8],35%
same,% inhibition at 5.6 nM,[8],116%
same,% inhibition at 16.7 nM,[8],104%
same,IC50,[8],1.95 nM
same,Jagged1/293T X Geo mean,[9],13.8
B3,EC50,[10],0.071 µg/mL
same,IC50,[11],0.17 µg/mL
B4,EC50,[10],0.051 µg/mL
same,IC50,[11],0.107 µg/mL
B5,EC50,[10],0.074 µg/mL
same,IC50,[11],0.155 µg/mL
B6,EC50,[10],0.07 µg/mL
same,IC50,[11],0.133 µg/mL
B7,EC50,[10],0.067 µg/mL
same,IC50,[11],0.136 µg/mL
B8,EC50,[10],0.082 µg/mL
same,IC50,[11],0.181 µg/mL
B9,EC50,[10],0.095 µg/mL
same,IC50,[11],0.211 µg/mL
